Patent US11965039B2, “Compstatin analogues and their medical uses” (priority 2018, dated 2024)
Positions of bridges follow the written chain, without caps; N, C: chain ends. Non-standard residues stand in square brackets, D forms with d. Trp(1-Me) = Cn1cc(C[C@H](N)C(=O)O)c2ccccc21; 1Nal = N[C@@H](Cc1cccc2ccccc12)C(=O)O; Sar = CNCC(=O)O

Key:
[1] = target: T1, Human C3 (Complement tech cat #A113c) (human, UniProt P01024 23-1663); experiment: cell-based or functional assay
[2] = target: T1, Human C3 (Complement tech cat #A113c); experiment: cell-based or functional assay; remark: listed apart in the source
[3] = target: T1, Human C3 (Complement tech cat #A113c); experiment: SPR (Biacore T200), human C3 immobilised, peptide injected, 1:1 fit
Outline: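 Human C3 amine-coupled on CM5 chips to about 3000 RU. Multi-cycle runs on Biacore T200 at 25° C: peptides at 6-8 rising concentrations, 60-120 s at 30 µL/min in 10 mM Tris pH 7.4, 150 mM NaCl, 0.05% Tween20, dissociation up to 10 min; 3 M MgCl2 regeneration. Kd derived.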

T1 sequence (P01024 23-1663 limits assumed): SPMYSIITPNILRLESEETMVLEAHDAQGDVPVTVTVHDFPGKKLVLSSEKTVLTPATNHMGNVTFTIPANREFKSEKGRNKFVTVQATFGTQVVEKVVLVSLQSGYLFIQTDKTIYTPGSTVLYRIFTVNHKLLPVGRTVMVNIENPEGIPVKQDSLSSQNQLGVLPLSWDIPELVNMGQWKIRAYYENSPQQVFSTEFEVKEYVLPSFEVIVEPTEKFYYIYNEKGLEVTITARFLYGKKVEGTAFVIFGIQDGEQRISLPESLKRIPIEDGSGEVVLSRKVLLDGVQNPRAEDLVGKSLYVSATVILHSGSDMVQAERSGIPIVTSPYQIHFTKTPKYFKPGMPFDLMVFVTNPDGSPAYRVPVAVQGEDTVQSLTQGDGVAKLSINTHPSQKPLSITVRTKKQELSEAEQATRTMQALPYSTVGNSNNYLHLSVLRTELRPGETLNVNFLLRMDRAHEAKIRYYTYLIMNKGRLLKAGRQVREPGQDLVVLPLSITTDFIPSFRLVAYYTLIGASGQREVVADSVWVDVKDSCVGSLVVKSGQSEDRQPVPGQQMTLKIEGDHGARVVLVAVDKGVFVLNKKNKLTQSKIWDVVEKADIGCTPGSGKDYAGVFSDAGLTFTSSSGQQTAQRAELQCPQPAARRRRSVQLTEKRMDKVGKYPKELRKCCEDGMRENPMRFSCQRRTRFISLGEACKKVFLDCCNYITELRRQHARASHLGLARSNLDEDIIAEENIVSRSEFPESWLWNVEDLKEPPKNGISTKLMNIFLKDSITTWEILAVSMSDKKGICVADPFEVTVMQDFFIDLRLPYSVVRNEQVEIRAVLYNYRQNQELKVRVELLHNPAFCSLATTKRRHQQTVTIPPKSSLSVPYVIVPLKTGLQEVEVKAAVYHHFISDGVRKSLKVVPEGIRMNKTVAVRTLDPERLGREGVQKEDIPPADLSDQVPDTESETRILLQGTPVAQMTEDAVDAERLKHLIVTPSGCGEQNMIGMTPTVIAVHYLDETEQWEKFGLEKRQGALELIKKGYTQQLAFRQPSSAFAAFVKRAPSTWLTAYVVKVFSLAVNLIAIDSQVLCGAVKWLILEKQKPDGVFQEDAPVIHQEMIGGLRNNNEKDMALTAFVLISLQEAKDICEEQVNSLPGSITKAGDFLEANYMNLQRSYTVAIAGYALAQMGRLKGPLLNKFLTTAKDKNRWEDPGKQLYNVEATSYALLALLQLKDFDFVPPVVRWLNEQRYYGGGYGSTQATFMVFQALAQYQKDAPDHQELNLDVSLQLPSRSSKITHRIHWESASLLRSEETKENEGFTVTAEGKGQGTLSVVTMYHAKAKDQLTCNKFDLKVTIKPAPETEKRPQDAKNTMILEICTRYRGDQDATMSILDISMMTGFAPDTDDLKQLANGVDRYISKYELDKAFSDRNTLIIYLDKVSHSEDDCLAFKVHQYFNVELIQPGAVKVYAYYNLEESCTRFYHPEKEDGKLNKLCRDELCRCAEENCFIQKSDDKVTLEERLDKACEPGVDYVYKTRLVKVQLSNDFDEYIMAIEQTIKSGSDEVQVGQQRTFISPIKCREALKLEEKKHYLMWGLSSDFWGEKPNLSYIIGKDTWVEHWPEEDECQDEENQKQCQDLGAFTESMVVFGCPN

Kd [3] [nM]	Binder	CP hemolysis IC50 [1] [nM]	inhibition of hemolysis IC50 [2] [nM]
–	Ac-ICVWQDWGAHSCT-NH2 (disulfide 2-12; SMILES CC[C@H](C)[C@H](NC(C)=O)C(=O)N[C@H]1CSSC[C@@H](C(=O)N[C@H](C(N)=O)[C@@H](C)O)NC(=O)[C@H](CO)NC(=O)[C@H](Cc2c[nH]cn2)NC(=O)[C@H](C)NC(=O)CNC(=O)[C@H](Cc2c[nH]c3ccccc23)NC(=O)[C@H](CC(=O)O)NC(=O)[C@H](CCC(N)=O)NC(=O)[C@H](Cc2c[nH]c3ccccc23)NC(=O)[C@H](C(C)C)NC1=O) [Compound E]	> 1000	–
1.5	Ac-SEFCI[Trp(1-Me)]QDWGEHRC[Sar]EA-NH2 (disulfide 4-14; SMILES CC[C@H](C)[C@@H]1NC(=O)[C@@H](NC(=O)[C@H](Cc2ccccc2)NC(=O)[C@H](CCC(=O)O)NC(=O)[C@H](CO)NC(C)=O)CSSC[C@@H](C(=O)N(C)CC(=O)N[C@@H](CCC(=O)O)C(=O)N[C@@H](C)C(N)=O)NC(=O)[C@H](CCCNC(=N)N)NC(=O)[C@H](Cc2c[nH]cn2)NC(=O)[C@H](CCC(=O)O)NC(=O)CNC(=O)[C@H](Cc2c[nH]c3ccccc23)NC(=O)[C@H](CC(=O)O)NC(=O)[C@H](CCC(N)=O)NC(=O)[C@H](Cc2cn(C)c3ccccc23)NC1=O) [Compound 75]	–	< 100
2.6	Ac-SEFCI[Trp(1-Me)]QDWGEHKC[Sar]EA-NH2 (disulfide 4-14; SMILES CC[C@H](C)[C@@H]1NC(=O)[C@@H](NC(=O)[C@H](Cc2ccccc2)NC(=O)[C@H](CCC(=O)O)NC(=O)[C@H](CO)NC(C)=O)CSSC[C@@H](C(=O)N(C)CC(=O)N[C@@H](CCC(=O)O)C(=O)N[C@@H](C)C(N)=O)NC(=O)[C@H](CCCCN)NC(=O)[C@H](Cc2c[nH]cn2)NC(=O)[C@H](CCC(=O)O)NC(=O)CNC(=O)[C@H](Cc2c[nH]c3ccccc23)NC(=O)[C@H](CC(=O)O)NC(=O)[C@H](CCC(N)=O)NC(=O)[C@H](Cc2cn(C)c3ccccc23)NC1=O) [Compound 86]	–	< 100
5.4	Ac-SE[Sar]CI[Trp(1-Me)]QDWGEHRCTEA-NH2 (disulfide 4-14; SMILES CC[C@H](C)[C@@H]1NC(=O)[C@@H](NC(=O)CN(C)C(=O)[C@H](CCC(=O)O)NC(=O)[C@H](CO)NC(C)=O)CSSC[C@@H](C(=O)N[C@H](C(=O)N[C@@H](CCC(=O)O)C(=O)N[C@@H](C)C(N)=O)[C@@H](C)O)NC(=O)[C@H](CCCNC(=N)N)NC(=O)[C@H](Cc2c[nH]cn2)NC(=O)[C@H](CCC(=O)O)NC(=O)CNC(=O)[C@H](Cc2c[nH]c3ccccc23)NC(=O)[C@H](CC(=O)O)NC(=O)[C@H](CCC(N)=O)NC(=O)[C@H](Cc2cn(C)c3ccccc23)NC1=O) [Compound 82]	–	< 100
1.3	Ac-EFCI[Trp(1-Me)]QDWGEHRCES-NH2 (disulfide 3-13; SMILES CC[C@H](C)[C@@H]1NC(=O)[C@@H](NC(=O)[C@H](Cc2ccccc2)NC(=O)[C@H](CCC(=O)O)NC(C)=O)CSSC[C@@H](C(=O)N[C@@H](CCC(=O)O)C(=O)N[C@@H](CO)C(N)=O)NC(=O)[C@H](CCCNC(=N)N)NC(=O)[C@H](Cc2c[nH]cn2)NC(=O)[C@H](CCC(=O)O)NC(=O)CNC(=O)[C@H](Cc2c[nH]c3ccccc23)NC(=O)[C@H](CC(=O)O)NC(=O)[C@H](CCC(N)=O)NC(=O)[C@H](Cc2cn(C)c3ccccc23)NC1=O) [Compound 85]	–	< 100
0.68	Ac-SEFCI[Trp(1-Me)]QDWGEHRCTGAES-NH2 (disulfide 4-14; SMILES CC[C@H](C)[C@@H]1NC(=O)[C@@H](NC(=O)[C@H](Cc2ccccc2)NC(=O)[C@H](CCC(=O)O)NC(=O)[C@H](CO)NC(C)=O)CSSC[C@@H](C(=O)N[C@H](C(=O)NCC(=O)N[C@@H](C)C(=O)N[C@@H](CCC(=O)O)C(=O)N[C@@H](CO)C(N)=O)[C@@H](C)O)NC(=O)[C@H](CCCNC(=N)N)NC(=O)[C@H](Cc2c[nH]cn2)NC(=O)[C@H](CCC(=O)O)NC(=O)CNC(=O)[C@H](Cc2c[nH]c3ccccc23)NC(=O)[C@H](CC(=O)O)NC(=O)[C@H](CCC(N)=O)NC(=O)[C@H](Cc2cn(C)c3ccccc23)NC1=O) [Compound 67]	–	< 100
–	Ac-ICVWQDWGEHSCT-NH2 (disulfide 2-12; SMILES CC[C@H](C)[C@H](NC(C)=O)C(=O)N[C@H]1CSSC[C@@H](C(=O)N[C@H](C(N)=O)[C@@H](C)O)NC(=O)[C@H](CO)NC(=O)[C@H](Cc2c[nH]cn2)NC(=O)[C@H](CCC(=O)O)NC(=O)CNC(=O)[C@H](Cc2c[nH]c3ccccc23)NC(=O)[C@H](CC(=O)O)NC(=O)[C@H](CCC(N)=O)NC(=O)[C@H](Cc2c[nH]c3ccccc23)NC(=O)[C@H](C(C)C)NC1=O) [Compound F]	540	–
–	Ac-EGSAICVWQDWGEHRC[Sar]E-NH2 (disulfide 6-16; SMILES CC[C@H](C)[C@H](NC(=O)[C@H](C)NC(=O)[C@H](CO)NC(=O)CNC(=O)[C@H](CCC(=O)O)NC(C)=O)C(=O)N[C@H]1CSSC[C@@H](C(=O)N(C)CC(=O)N[C@@H](CCC(=O)O)C(N)=O)NC(=O)[C@H](CCCNC(=N)N)NC(=O)[C@H](Cc2c[nH]cn2)NC(=O)[C@H](CCC(=O)O)NC(=O)CNC(=O)[C@H](Cc2c[nH]c3ccccc23)NC(=O)[C@H](CC(=O)O)NC(=O)[C@H](CCC(N)=O)NC(=O)[C@H](Cc2c[nH]c3ccccc23)NC(=O)[C@H](C(C)C)NC1=O) [Compound H]	330	–
4.3	Ac-FCI[1Nal]QDWGEHRCTGAES-NH2 (disulfide 2-12; SMILES CC[C@H](C)[C@@H]1NC(=O)[C@@H](NC(=O)[C@H](Cc2ccccc2)NC(C)=O)CSSC[C@@H](C(=O)N[C@H](C(=O)NCC(=O)N[C@@H](C)C(=O)N[C@@H](CCC(=O)O)C(=O)N[C@@H](CO)C(N)=O)[C@@H](C)O)NC(=O)[C@H](CCCNC(=N)N)NC(=O)[C@H](Cc2c[nH]cn2)NC(=O)[C@H](CCC(=O)O)NC(=O)CNC(=O)[C@H](Cc2c[nH]c3ccccc23)NC(=O)[C@H](CC(=O)O)NC(=O)[C@H](CCC(N)=O)NC(=O)[C@H](Cc2cccc3ccccc23)NC1=O) [Compound 63]	–	< 100
0.3	H-[dY]FCI[Trp(1-Me)]QDW[Sar]EHRCTGAES-NH2 (disulfide 3-13; SMILES CC[C@H](C)[C@@H]1NC(=O)[C@@H](NC(=O)[C@H](Cc2ccccc2)NC(=O)[C@H](N)Cc2ccc(O)cc2)CSSC[C@@H](C(=O)N[C@H](C(=O)NCC(=O)N[C@@H](C)C(=O)N[C@@H](CCC(=O)O)C(=O)N[C@@H](CO)C(N)=O)[C@@H](C)O)NC(=O)[C@H](CCCNC(=N)N)NC(=O)[C@H](Cc2c[nH]cn2)NC(=O)[C@H](CCC(=O)O)NC(=O)CN(C)C(=O)[C@H](Cc2c[nH]c3ccccc23)NC(=O)[C@H](CC(=O)O)NC(=O)[C@H](CCC(N)=O)NC(=O)[C@H](Cc2cn(C)c3ccccc23)NC1=O) [Compound 73]	–	< 100
9.7	Ac-SE[Sar]CI[Trp(1-Me)]QDWGEHRC[Sar]EA-NH2 (disulfide 4-14; SMILES CC[C@H](C)[C@@H]1NC(=O)[C@@H](NC(=O)CN(C)C(=O)[C@H](CCC(=O)O)NC(=O)[C@H](CO)NC(C)=O)CSSC[C@@H](C(=O)N(C)CC(=O)N[C@@H](CCC(=O)O)C(=O)N[C@@H](C)C(N)=O)NC(=O)[C@H](CCCNC(=N)N)NC(=O)[C@H](Cc2c[nH]cn2)NC(=O)[C@H](CCC(=O)O)NC(=O)CNC(=O)[C@H](Cc2c[nH]c3ccccc23)NC(=O)[C@H](CC(=O)O)NC(=O)[C@H](CCC(N)=O)NC(=O)[C@H](Cc2cn(C)c3ccccc23)NC1=O) [Compound 81]	–	< 100
–	Ac-ICVWQDWGSHRCT-NH2 (disulfide 2-12; SMILES CC[C@H](C)[C@H](NC(C)=O)C(=O)N[C@H]1CSSC[C@@H](C(=O)N[C@H](C(N)=O)[C@@H](C)O)NC(=O)[C@H](CCCNC(=N)N)NC(=O)[C@H](Cc2c[nH]cn2)NC(=O)[C@H](CO)NC(=O)CNC(=O)[C@H](Cc2c[nH]c3ccccc23)NC(=O)[C@H](CC(=O)O)NC(=O)[C@H](CCC(N)=O)NC(=O)[C@H](Cc2c[nH]c3ccccc23)NC(=O)[C@H](C(C)C)NC1=O) [Compound B]	360	–
–	Ac-ESSAICVWQDWGEHRCT-NH2 (disulfide 6-16; SMILES CC[C@H](C)[C@H](NC(=O)[C@H](C)NC(=O)[C@H](CO)NC(=O)[C@H](CO)NC(=O)[C@H](CCC(=O)O)NC(C)=O)C(=O)N[C@H]1CSSC[C@@H](C(=O)N[C@H](C(N)=O)[C@@H](C)O)NC(=O)[C@H](CCCNC(=N)N)NC(=O)[C@H](Cc2c[nH]cn2)NC(=O)[C@H](CCC(=O)O)NC(=O)CNC(=O)[C@H](Cc2c[nH]c3ccccc23)NC(=O)[C@H](CC(=O)O)NC(=O)[C@H](CCC(N)=O)NC(=O)[C@H](Cc2c[nH]c3ccccc23)NC(=O)[C@H](C(C)C)NC1=O) [Compound C]	300	–
